Data published in the supplement of paper PMC10057847, “Precision engineering of biological function with large-scale measurements and machine learning” (PLOS ONE, 2023).
± gives the uncertainty stated by the source.

B1: library; the commonest letter at each place (parent)
chain: MKPVTLYDVAEYAGVSYQTVSRVVNQASHVSAKTREKVEAAMAELNYIPNRVAQQLAGKQSLLIGVATSSLALHAPSQIVAAIKSRADQLGASVVVSMVERSGVEACKAAVHNLLAQRVSGLIINYPLDDQDAIAVEAACTNVPALFLDVSDQTPINSIIFSHEDGTRLGVEHLVALGHQQIALLAGPLSSVSARLRLAGWHKYLTRNQIQPIAEREGDWSAMSGFQQTMQMLNEGIVPTAMLVANDQMALGAMRAITESGLRVGADISVVGYDDTEDSSCYIPPLTTIKQDFRLLGQTSVDRLLQLSQGQAVKGNQLLPVSLVKRKTTLAPNTQTASPRALADSLMQLARQVSRLESGQ

Assays:
Conditions in all cases: with IPTG
IPTG [1] = variants of: B1
Experimental: (§1)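 LacI variants on the pVER plasmid regulate eYFP behind lacO in E. coli MG1655Δlac, grown in rich M9 at 37 °C with a 2-fold IPTG dilution series. After two 160-min growth steps, YFP is read by flow cytometry and calibrated to MEF. Bayesian MCMC fits of the Hill equation give G0, G∞, EC50 and n (posterior mean ± SD).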

IPTG [2] = variants of: B1; experiment: Hill coefficient n (dimensionless); higher = steeper dose response
Experimental: as §1

IPTG [3] = variants of: B1; experiment: basal output G0 (YFP, no IPTG) (log10 MEF); higher = higher reporter expression without inducer
Experimental: as §1

IPTG [4] = variants of: B1; experiment: saturating output G-infinity (YFP) (log10 MEF); higher = higher reporter expression at saturating IPTG
Experimental: as §1

Variant | EC50 for IPTG (log10 µmol/L) (IPTG [1]) | Hill coefficient n (IPTG [2]) | basal output G0 (log10) (IPTG [3]) | saturating output G-infinity (log10) (IPTG [4])
MKPVTLYDVAEYAGVSYQTVSRVVNQASHVSAKTREKVEAALAELNYIPNRVAQQLAGKQSLLIGIATSSLALHAPSQIVAAIKSRADQLGANVVVSMVERSGVEACKAAVHNLLAQRVSGLIINYPLDDQVAIAVEAACTNVPALFLDVSDQTPINSIIFSHEDGTRLGVEHLVALGHQQIALLAGPLSSVSARLRLAGWHKYLTRNQIQPIAEREGDWSAMSGFQQTMQMLNEGIVPTAMLVANDQMALGAMRAITESGLRVGADISVVGYDDTEDSSCYIPPLTTIKQDFRLLGQTSVDRLLQLSQGQAVKGNQLLPVSLVKRKTTLAPNTQTASPRALADSLMQLARQVSRLESGQ [M42L V66I S93N D132V] | 1.646 ± 0.0068 | 1.59 ± 0.033 | 2.55 ± 0.058 | 4.1768 ± 0.0024
MKPVTLYDVAEYAGVSYQTVSRVVNQASHVSAKTREKVEAAIAELNYIPNRVAQQLAGKQSLLIGVATSSLALHAPSQIVAAIKSRADQLGASVVVSMVERSGVEACKAAVHNLLAQRVSGLIINYPLDDQDAIAVEAACTNVPALFLDVSDQTPINSIIFSHEDGTRLGVEHLVALGHQQIALLAGPLSSVSARLRLAGWHKYLTRNQIQPIAEREGDWSAMSGFQQTMQMLNEGIVPTAMLVANDQMALGAMRAITESGLRVGADISVVGYDDTEDSSCYIPPLTTIKQDFRLLGQTSVDRLLQLSQGQAVKGNQLLPVSLVKRKTTLAPNTQTASPRALADSLMQLARQVSRLESGQ [M42I] | 2.437 ± 0.015 | 1.43 ± 0.046 | 0.821 ± 0.6 | 4.148 ± 0.0056
MKPVTLYDVAEYAGVSYQTVSRVVNQASHVSAKTREKVEAAIAELNYIPNCVAQQLAGKQSLLIGVATSSLALHAPSQIVAAIKSRADQLGASVVVSMVERSGVEACKAAVHNLLAQRVSGLIINYPLDDQDAIAVEAACTNVPALFLDVSDQTPINSIIFSHEDGTRLGVEHLVALGHQQIALLAGPLSSVSARLRLAGWHKYLTRNQIQPIAEREGDWSAMSGFQQTMQMLNEGIVPTAMLVANDQMALGAMRAITESGLRVGADISVVGYDDTEDSSCYIPPLTTIKQDFRLLGQTSVDRLLQLSQGQAVKGNQLLPVSLVKRKTTLAPNTQTASPRALADSLMQLARQVSRLESGQ [M42I R51C] | 1.496 ± 0.014 | 1.6 ± 0.058 | 3.21 ± 0.035 | 4.511 ± 0.0051
